Experimental data as given in paper PMC5893306 (Molecular pharmaceutics, 2018).

Assay: Rat pharmacokinetics, IV and SC
Format: in vivo, Sprague Dawley rats
Conditions: for Vd / half-life / Tmax / bioavailability / clearance: Sprague-Dawley, rat, plasma
[1] = rats, IV, compared to PIE12-trimer

Structure (SMILES)	Vd (iv)	half-life (iv)	Tmax (sc)	bioavailability (sc)	half-life (sc)	increase in half-life upon IV or SC dosing (rats, compared to PIE12-trimer)	reduction of clearance [1]	clearance (iv)	increase of IV half-life [1]	extension of apparent half-life upon SC dosing (rats, SC, based on terminal-phase elimination, compared to PIE12-trimer)
CCCCCCCCCCCCCCCCSC1CC(=O)N(CCC(=O)NCCOCCOCCOCCOCCOCCOCCOCCOCCOCCOCCOCCOCCOCCOCCOCCOCCOCCOCCOCCOCCOCCOCCOCCOCCC(=O)NC(COCCC(=O)NCCOCCOCCOCCOCCC(=O)NCCCC[C@@H](NC(=O)CNC(=O)[C@@H](CC(C)C)NC(=O)[C@@H](CCC(=O)O)NC(=O)[C@H]2CSSC[C@@H](NC(=O)[C@H]3CCCN3C(=O)[C@@H](Cc3c[nH]cn3)NC(C)=O)C(=O)N[C@H](CC(=O)O)C(=O)N[C@H](Cc3ccc(O)cc3)C(=O)N3CCC[C@@H]3C(=O)N[C@H](CCC(=O)O)C(=O)N[C@H](Cc3c[nH]c4ccccc34)C(=O)N[C@H](CCC(N)=O)C(=O)N[C@H](Cc3c[nH]c4ccccc34)C(=O)N[C@H](CC(C)C)C(=O)N2)C(N)=O)(COCCC(=O)NCCOCCOCCOCCOCCC(=O)NCCCC[C@@H](NC(=O)CNC(=O)[C@@H](CC(C)C)NC(=O)[C@@H](CCC(=O)O)NC(=O)[C@H]2CSSC[C@@H](NC(=O)[C@H]3CCCN3C(=O)[C@@H](Cc3c[nH]cn3)NC(C)=O)C(=O)N[C@H](CC(=O)O)C(=O)N[C@H](Cc3ccc(O)cc3)C(=O)N3CCC[C@@H]3C(=O)N[C@H](CCC(=O)O)C(=O)N[C@H](Cc3c[nH]c4ccccc34)C(=O)N[C@H](CCC(N)=O)C(=O)N[C@H](Cc3c[nH]c4ccccc34)C(=O)N[C@H](CC(C)C)C(=O)N2)C(N)=O)COCCC(=O)NCCOCCOCCOCCOCCC(=O)NCCCC[C@@H](NC(=O)CNC(=O)[C@@H](CC(C)C)NC(=O)[C@@H](CCC(=O)O)NC(=O)[C@H]2CSSC[C@@H](NC(=O)[C@H]3CCCN3C(=O)[C@@H](Cc3c[nH]cn3)NC(C)=O)C(=O)N[C@H](CC(=O)O)C(=O)N[C@H](Cc3ccc(O)cc3)C(=O)N3CCC[C@@H]3C(=O)N[C@H](CCC(=O)O)C(=O)N[C@H](Cc3c[nH]c4ccccc34)C(=O)N[C@H](CCC(N)=O)C(=O)N[C@H](Cc3c[nH]c4ccccc34)C(=O)N[C@H](CC(C)C)C(=O)N2)C(N)=O)C1=O (stereo partly drawn) [C16-PIE12-trimer]	0.137 L/kg	0.9 h	1 h	38%	1.2 h	< 2 fold	5-8 fold	–	–	–
CCCCCCCCCCCCCCCCCCSC1CC(=O)N(CCC(=O)NCCOCCOCCOCCOCCOCCOCCOCCOCCOCCOCCOCCOCCOCCOCCOCCOCCOCCOCCOCCOCCOCCOCCOCCOCCC(=O)NC(COCCC(=O)NCCOCCOCCOCCOCCC(=O)NCCCC[C@@H](NC(=O)CNC(=O)[C@@H](CC(C)C)NC(=O)[C@@H](CCC(=O)O)NC(=O)[C@H]2CSSC[C@@H](NC(=O)[C@H]3CCCN3C(=O)[C@@H](Cc3c[nH]cn3)NC(C)=O)C(=O)N[C@H](CC(=O)O)C(=O)N[C@H](Cc3ccc(O)cc3)C(=O)N3CCC[C@@H]3C(=O)N[C@H](CCC(=O)O)C(=O)N[C@H](Cc3c[nH]c4ccccc34)C(=O)N[C@H](CCC(N)=O)C(=O)N[C@H](Cc3c[nH]c4ccccc34)C(=O)N[C@H](CC(C)C)C(=O)N2)C(N)=O)(COCCC(=O)NCCOCCOCCOCCOCCC(=O)NCCCC[C@@H](NC(=O)CNC(=O)[C@@H](CC(C)C)NC(=O)[C@@H](CCC(=O)O)NC(=O)[C@H]2CSSC[C@@H](NC(=O)[C@H]3CCCN3C(=O)[C@@H](Cc3c[nH]cn3)NC(C)=O)C(=O)N[C@H](CC(=O)O)C(=O)N[C@H](Cc3ccc(O)cc3)C(=O)N3CCC[C@@H]3C(=O)N[C@H](CCC(=O)O)C(=O)N[C@H](Cc3c[nH]c4ccccc34)C(=O)N[C@H](CCC(N)=O)C(=O)N[C@H](Cc3c[nH]c4ccccc34)C(=O)N[C@H](CC(C)C)C(=O)N2)C(N)=O)COCCC(=O)NCCOCCOCCOCCOCCC(=O)NCCCC[C@@H](NC(=O)CNC(=O)[C@@H](CC(C)C)NC(=O)[C@@H](CCC(=O)O)NC(=O)[C@H]2CSSC[C@@H](NC(=O)[C@H]3CCCN3C(=O)[C@@H](Cc3c[nH]cn3)NC(C)=O)C(=O)N[C@H](CC(=O)O)C(=O)N[C@H](Cc3ccc(O)cc3)C(=O)N3CCC[C@@H]3C(=O)N[C@H](CCC(=O)O)C(=O)N[C@H](Cc3c[nH]c4ccccc34)C(=O)N[C@H](CCC(N)=O)C(=O)N[C@H](Cc3c[nH]c4ccccc34)C(=O)N[C@H](CC(C)C)C(=O)N2)C(N)=O)C1=O (stereo partly drawn) [C18-PIE12-trimer]	0.227 L/kg	1.1 h	2 h	94%	1.4 h	< 2 fold	5-8 fold	2.5 mL/min/kg	–	–
CC(=O)N[C@H](Cc1c[nH]cn1)C(=O)N1CCC[C@@H]1C(=O)N[C@@H]1CSSC[C@H](C(=O)N[C@H](CCC(=O)O)C(=O)N[C@H](CC(C)C)C(=O)NCC(=O)N[C@H](CCCCNC(=O)CCOCCOCCOCCOCCNC(=O)CCOCC(C)(COCCC(=O)NCCOCCOCCOCCOCCC(=O)NCCCC[C@@H](NC(=O)CNC(=O)[C@@H](CC(C)C)NC(=O)[C@@H](CCC(=O)O)NC(=O)[C@H]2CSSC[C@@H](NC(=O)[C@H]3CCCN3C(=O)[C@@H](Cc3c[nH]cn3)NC(C)=O)C(=O)N[C@H](CC(=O)O)C(=O)N[C@H](Cc3ccc(O)cc3)C(=O)N3CCC[C@@H]3C(=O)N[C@H](CCC(=O)O)C(=O)N[C@H](Cc3c[nH]c4ccccc34)C(=O)N[C@H](CCC(N)=O)C(=O)N[C@H](Cc3c[nH]c4ccccc34)C(=O)N[C@H](CC(C)C)C(=O)N2)C(N)=O)COCCC(=O)NCCOCCOCCOCCOCCC(=O)NCCCC[C@@H](NC(=O)CNC(=O)[C@@H](CC(C)C)NC(=O)[C@@H](CCC(=O)O)NC(=O)[C@H]2CSSC[C@@H](NC(=O)[C@H]3CCCN3C(=O)[C@@H](Cc3c[nH]cn3)NC(C)=O)C(=O)N[C@H](CC(=O)O)C(=O)N[C@H](Cc3ccc(O)cc3)C(=O)N3CCC[C@@H]3C(=O)N[C@H](CCC(=O)O)C(=O)N[C@H](Cc3c[nH]c4ccccc34)C(=O)N[C@H](CCC(N)=O)C(=O)N[C@H](Cc3c[nH]c4ccccc34)C(=O)N[C@H](CC(C)C)C(=O)N2)C(N)=O)C(N)=O)NC(=O)[C@@H](CC(C)C)NC(=O)[C@@H](Cc2c[nH]c3ccccc23)NC(=O)[C@@H](CCC(N)=O)NC(=O)[C@@H](Cc2c[nH]c3ccccc23)NC(=O)[C@@H](CCC(=O)O)NC(=O)[C@H]2CCCN2C(=O)[C@@H](Cc2ccc(O)cc2)NC(=O)[C@@H](CC(=O)O)NC1=O [PIE12-trimer]	0.704 L/kg	0.6 h	0.5 h	–	0.8 h	–	–	13.9 mL/min/kg	–	–
CCCCCCCCCCCCCCCC(=O)N[C@H](CSC1CC(=O)N(CCC(=O)NCCOCCOCCOCCOCCOCCOCCOCCOCCOCCOCCOCCOCCOCCOCCOCCOCCOCCOCCOCCOCCOCCOCCOCCOCCC(=O)NC(COCCC(=O)NCCOCCOCCOCCOCCC(=O)NCCCC[C@@H](NC(=O)CNC(=O)[C@@H](CC(C)C)NC(=O)[C@@H](CCC(=O)O)NC(=O)[C@H]2CSSC[C@@H](NC(=O)[C@H]3CCCN3C(=O)[C@@H](Cc3c[nH]cn3)NC(C)=O)C(=O)N[C@H](CC(=O)O)C(=O)N[C@H](Cc3ccc(O)cc3)C(=O)N3CCC[C@@H]3C(=O)N[C@H](CCC(=O)O)C(=O)N[C@H](Cc3c[nH]c4ccccc34)C(=O)N[C@H](CCC(N)=O)C(=O)N[C@H](Cc3c[nH]c4ccccc34)C(=O)N[C@H](CC(C)C)C(=O)N2)C(N)=O)(COCCC(=O)NCCOCCOCCOCCOCCC(=O)NCCCC[C@@H](NC(=O)CNC(=O)[C@@H](CC(C)C)NC(=O)[C@@H](CCC(=O)O)NC(=O)[C@H]2CSSC[C@@H](NC(=O)[C@H]3CCCN3C(=O)[C@@H](Cc3c[nH]cn3)NC(C)=O)C(=O)N[C@H](CC(=O)O)C(=O)N[C@H](Cc3ccc(O)cc3)C(=O)N3CCC[C@@H]3C(=O)N[C@H](CCC(=O)O)C(=O)N[C@H](Cc3c[nH]c4ccccc34)C(=O)N[C@H](CCC(N)=O)C(=O)N[C@H](Cc3c[nH]c4ccccc34)C(=O)N[C@H](CC(C)C)C(=O)N2)C(N)=O)COCCC(=O)NCCOCCOCCOCCOCCC(=O)NCCCC[C@@H](NC(=O)CNC(=O)[C@@H](CC(C)C)NC(=O)[C@@H](CCC(=O)O)NC(=O)[C@H]2CSSC[C@@H](NC(=O)[C@H]3CCCN3C(=O)[C@@H](Cc3c[nH]cn3)NC(C)=O)C(=O)N[C@H](CC(=O)O)C(=O)N[C@H](Cc3ccc(O)cc3)C(=O)N3CCC[C@@H]3C(=O)N[C@H](CCC(=O)O)C(=O)N[C@H](Cc3c[nH]c4ccccc34)C(=O)N[C@H](CCC(N)=O)C(=O)N[C@H](Cc3c[nH]c4ccccc34)C(=O)N[C@H](CC(C)C)C(=O)N2)C(N)=O)C1=O)C(=O)O (stereo partly drawn) [Palm-PIE12-trimer]	0.144 L/kg	1.8 h	1 h	–	2.2 h	–	14-18 fold	–	3 fold	~ 3 fold
